Source: patent publication US20060148057A1, “Thioredoxin mutants and uses thereof” (priority 2002, published 2006)

Test system: caspase 3
Assay: ASK1-induced caspase 3 activity assay in BAEC (Ac-DEVD-AMC substrate)
Format: cell-based, Bovine
Details: co-expression with ASK1; n=4, p<0.05
Procedure: Caspase 3 activity assay: Caspase 3 activity was measured with a Caspase 3 fluorescence kit (Sigma) according to the Manufacturer's protocol. Briefly, BAEC were harvested in Caspase 3 lysis buffer (25 mM Hepes, pH 7.4, 5 mM CHAPS, 5 mM DTT) and incubated on ice for 15-20 min followed by a centrifugation at 14,000× g for 10-15 min at 4° C. For each reaction, 5 μl (200 μg) of cell lysate was incubated with 200 μl of 16 μM Caspase 3 peptide substrate acetyl-ASP-Glu-Val-Asp-7 amido-4-methylcoumarin (Ac-DEVD-AMC) in the assay buffer (25 mM Hepes, pH 7.4, 5 mM EDTA, 0.1% CHAPS, 5 mM DTT) in the presence or absence of 100 μM Caspase 3 inhibitor (Ac-DEVD-CHO). The reaction was incubated in the dark for 1-1.5 h and fluorescence was measured in a fluorescence plate reader. The measured fluorescence was used as an arbitrary unit.
Then the effects. of Trx on ASK1-induced caspase 3 activation, a hallmark of the execution of apoptotic cell death (Green D R. Apoptotic pathways: paper wraps stone blunts scissors. Cell. 102:1-4 (2000); Hengartner MO. The biochemistry of apoptosis. Nature. 407:770-6 2000)) was examined. Caspase 3 activity was determined by an in vitro assay using peptide substrate acetyl-ASP-Glu-Val-Asp-7 amido-4-methylcounarin (Ac-DEVD-AMC). Overexpression of ASK1 in BAEC increased caspase 3 activity compared to the control cells (FIG. 6B).

B1: Trx-CS: double-mutant of C32S and C35S of Trx (protein)
chain: MVKQIESKTAFQEALDAAGDKLVVVDFSATWSGPSKMIKPFFHSLSEKYSNVIFLEVDVDDCQDVASECEVKCMPTFQFFKKGQKVGEFSGANKEKLEATINELV
modifications: left off: a dimerising Fc or GST; large carriers; small tags and cut ends
  inhibition of ASK1-induced caspase 3 activity: failed to block
